Experimental findings from patent US20230080865A1 are described below.

For test [1], the target named is AEG::SOE2 chimeric recombinant protein. Briefly: ELISA, AEG::SOE2 coated on wells; reagent 1:1000. In general terms: In an ELISA, binding on a coated surface is turned into a signal by an enzyme label.
The target of test [2] is AEG::SOE3 chimeric recombinant protein. Briefly: ELISA, AEG::SOE3 coated on wells; reagent 1:1000.

In the case of “secondary peroxidase-conjugated goat anti-mouse IgG (antibody)”, the ELISA signal in test [1] amounted to 0.11; in test [2] it was 0.111.
